In patent US20240115603A1 (Zymeworks, published 2024):

T1: WT G-CSFR(Ig-CRH), purified, tag cleaved (human, UniProt Q99062 26-331)
T1 construct: also called G-CSFRWT; wild type G-CSFR ECD
T1 chain: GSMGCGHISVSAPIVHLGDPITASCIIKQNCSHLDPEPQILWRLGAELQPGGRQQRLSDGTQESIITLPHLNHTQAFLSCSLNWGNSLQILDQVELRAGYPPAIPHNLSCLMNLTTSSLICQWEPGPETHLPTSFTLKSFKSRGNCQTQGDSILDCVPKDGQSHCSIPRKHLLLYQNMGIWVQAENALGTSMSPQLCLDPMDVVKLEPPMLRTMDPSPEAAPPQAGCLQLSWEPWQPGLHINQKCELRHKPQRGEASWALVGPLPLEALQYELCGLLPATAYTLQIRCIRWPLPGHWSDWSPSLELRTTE

T2: G-CSFR(Ig-CRH)E design 9, purified, tag cleaved (human, UniProt Q99062 26-331)
T2 construct: SPR protein; also called Design 9 G-CSFR(Ig-CRH)E
T2 chain: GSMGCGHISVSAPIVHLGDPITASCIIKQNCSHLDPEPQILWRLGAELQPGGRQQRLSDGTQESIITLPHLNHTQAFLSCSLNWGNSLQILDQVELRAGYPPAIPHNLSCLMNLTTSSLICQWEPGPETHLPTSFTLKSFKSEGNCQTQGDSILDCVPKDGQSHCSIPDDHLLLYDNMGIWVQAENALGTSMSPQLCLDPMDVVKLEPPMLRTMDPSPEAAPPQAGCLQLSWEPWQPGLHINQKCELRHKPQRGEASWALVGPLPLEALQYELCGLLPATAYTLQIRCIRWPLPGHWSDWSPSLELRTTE

T3: WT G-CSF, purified, tag cleaved (human, UniProt P09919 31-206)
T3 construct: also called G-CSFWT
T3 sequence: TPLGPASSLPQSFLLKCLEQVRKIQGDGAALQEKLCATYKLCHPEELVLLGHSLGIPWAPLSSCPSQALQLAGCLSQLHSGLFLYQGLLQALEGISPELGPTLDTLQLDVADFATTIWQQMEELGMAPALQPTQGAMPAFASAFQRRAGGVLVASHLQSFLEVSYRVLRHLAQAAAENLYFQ

T4: G-CSFR(Ig-CRH)E design 30, purified, tag cleaved (human, UniProt Q99062 26-331)
T4 construct: also called Design 30 G-CSFR(Ig-CRH)E
T4 chain: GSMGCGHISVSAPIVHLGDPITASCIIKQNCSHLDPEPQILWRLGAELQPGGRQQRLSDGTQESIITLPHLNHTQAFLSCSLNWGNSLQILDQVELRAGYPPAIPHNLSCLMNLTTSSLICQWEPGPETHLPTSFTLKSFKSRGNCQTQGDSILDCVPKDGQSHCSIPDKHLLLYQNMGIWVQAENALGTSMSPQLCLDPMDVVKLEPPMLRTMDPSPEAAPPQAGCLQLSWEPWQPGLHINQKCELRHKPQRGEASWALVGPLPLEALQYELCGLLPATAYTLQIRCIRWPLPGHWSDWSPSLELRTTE

B1: G-CSFR(Ig-CRH)E design 134 (R41E_R141E_R167D), purified, tag cleaved (receptor)
chain: GSMGCGHISVSAPIVHLGDPITASCIIKQNCSHLDPEPQILWELGAELQPGGRQQRLSDGTQESIITLPHLNHTQAFLSCSLNWGNSLQILDQVELRAGYPPAIPHNLSCLMNLTTSSLICQWEPGPETHLPTSFTLKSFKSEGNCQTQGDSILDCVPKDGQSHCSIPDKHLLLYQNMGIWVQAENALGTSMSPQLCLDPMDVVKLEPPMLRTMDPSPEAAPPQAGCLQLSWEPWQPGLHINQKCELRHKPQRGEASWALVGPLPLEALQYELCGLLPATAYTLQIRCIRWPLPGHWSDWSPSLELRTTE
notes: also called Design 134 G-CSFR(Ig-CRH)E; design 137 G-CSFR(Ig-CRH)E

Columns and labels:
[1] = molecular target: T1, WT G-CSFR(Ig-CRH), purified, tag cleaved; test: SPR (Biacore T200), WT G-CSFR(Ig-CRH) amine-coupled, G-CSFE injected; KD relative to WT:WT control (larger = weaker)
[2] = molecular target: T2, G-CSFR(Ig-CRH)E design 9, purified, tag …; test: SPR (Biacore T200), G-CSFR(Ig-CRH)E amine-coupled, G-CSFE injected; KD relative to WT:WT control (larger = weaker)
Experimental: (§1) The SPR binding assays were carried out on a Biacore T200 instrument (GE Healthcare, Mississauga, ON, Canada) with PBS-T (PBS+0.05% (v/v) Tween 20) running buffer at a temperature of 25° C. CMS Series S sensor chip, Biacore amine coupling kit (NHS, EDC and 1 M ethanolamine), and 10 mM sodium acetate buffers were all purchased from GE Healthcare. PBS running buffer with 0.05% Tween20 (PBS-T) was purchased from Teknova Inc. (Hollister, CA).
(§2) To determine binding affinity of G-CSFE to G-CSFRE the G-CSFRE mutant was captured by standard amine coupling as described by the manufacturer (GE LifeSciences). Briefly, immediately after EDC/NHS activation, a 5 μg/mL solution of G-CSFRE in 10 mM NaOAc, pH 5.0, was injected at a flow rate of 5 μL/min until a receptor density of ˜700-900 RU was reached. The remaining active groups were quenched by a 420 s injection of 1 M ethanolamine hydrochloride-NaOH pH 8.5 at 10 μL/min. Using single-cycle kinetics, six concentrations of a two-fold dilution series of the corresponding G-CSFE mutant starting at 200 nM with a blank buffer control were sequentially injected at 25 μL/min for 300s with a 1800s dissociation phase, resulting in a set of sensorgrams with a buffer blank reference. The same sample titration was also performed on a reference cell with no variants captured. The chip was regenerated to prepare for the next injection cycle by one pulse of 10 mM glycine/HCl, pH 2.0, for 30 s at 30 μL/min.
(§3) Double-referenced sensorgrams from duplicate or triplicate repeat injections were analyzed using Biacore™ T200 Evaluation Software v3.0 and fit to the 1:1 Langmuir binding model.

[3] = molecular target: T1, WT G-CSFR(Ig-CRH), purified, tag cleaved; test: SPR (Biacore T200)
[4] = molecular target: T3, WT G-CSF, purified, tag cleaved; test: SPR (Biacore T200)
[5] = molecular target: T4, G-CSFR(Ig-CRH)E design 30, purified, …; test: SPR (Biacore T200), G-CSFR(Ig-CRH)E amine-coupled, G-CSFE injected; KD relative to WT:WT control (larger = weaker)
Experimental: as §1, §2, §3

[6] = molecular target: B1; test: as above
Experimental: as §1, §2, §3

| Binder | KD fold change (vs WT:WT) [1] [fold] | binding result [4] | also measured |
| --- | --- | --- | --- |
| G-CSFE design 9, purified, tag cleaved (ligand, also called Design 9 G-CSFE) TPLGPASSLPQSFLLKCLEQVRKIQGDGAALQEKLCATYKLCHPEELVLLGHSLGIPWAPLSSCPSQALQLAGCLSQLHSGLFLYQGLLQALEGISPELGPTLRTLQKDVARFATTIWRQMKELGMAPALQPTQGAMPAFASAFQRRAGGVLVASHLQSFLEVSYRVLRHLAQAAAENLYFQ | 79 |  | KD fold change (vs WT:WT) [2]: 1.2 fold; fold weaker KD (vs WT:WT) [3]: ≥ 20 fold |
| G-CSFR(Ig-CRH)E design 303, purified, tag cleaved (receptor, SPR protein; also called Design 303 G-CSFR(Ig-CRH)E) GSMGCGHISVSAPIVHLGDPITASCIIKQNCSHLDPEPQILWRLGAELQPGGRQQRLSDGTQESIITLPHLNHTQAFLSCSLNWGNSLQILDQVKLRAGYPPAIPHNLSCLMNLTTSSLICQWEPGPETHLPTSFTLKSFKSRGNCQTQGDSILDCVPKDGQSHCSIPDKHLLLYQNMGIWVQAENALGTSMSPQLCLDPMDVVKLEPPMLRTMDPSPEAAPPQAGCLQLSWEPWQPGLHINQKCELRHKPQRGEASWALVGPLPLEALQYELCGLLPATAYTLQIRCIRWPLPGHWSDWSPSLELRTTE |  | no binding |  |
| G-CSFE design 30, purified, tag cleaved (ligand, also called Design 30 G-CSFE) TPLGPASSLPQSFLLKCLEQVRKIQGDGAALQEKLCATYKLCHPEELVLLGHSLGIPWAPLSSCPSQALQLAGCLSQLHSGLFLYQGLLQALEGISPELGPTLDTLQKDVARFATTIWQQMEELGMAPALQPTQGAMPAFASAFQRRAGGVLVASHLQSFLEVSYRVLRHLAQAAAENLYFQ | 20 |  | KD fold change (vs WT:WT) [5]: 11 fold; fold weaker KD (vs WT:WT) [3]: ≥ 20 fold |
| B1 |  | no binding |  |
| G-CSFR(Ig-CRH)E design 304, purified, tag cleaved (receptor, SPR protein; also called Design 304 G-CSFR(Ig-CRH)E) GSMGCGHISVSAPIVHLGDPITASCIIKQNCSHLDPEPQILWELGAELQPGGRQQRLSDGTQESIITLPHLNHTQAFLSCSLNWGNSLQILDQVKLRAGYPPAIPHNLSCLMNLTTSSLICQWEPGPETHLPTSFTLKSFKSRGNCQTQGDSILDCVPKDGQSHCSIPDKHLLLYQNMGIWVQAENALGTSMSPQLCLDPMDVVKLEPPMLRTMDPSPEAAPPQAGCLQLSWEPWQPGLHINQKCELRHKPQRGEASWALVGPLPLEALQYELCGLLPATAYTLQIRCIRWPLPGHWSDWSPSLELRTTE |  | no binding |  |
| G-CSFR(Ig-CRH)E design 300, purified, tag cleaved (receptor, SPR protein; also called Design 300 G-CSFR(Ig-CRH)E) GSMGCGHISVSAPIVHLGDPITASCIIKQNCSHLDPEPQILWRLGAELQPGGRQQRLSDGTQESIITLPHLNHTQAKLSCSLNWGNSLQILDKVELRAGYPPAIPHNLSCLMNLTTSSLICQWEPGPETHLPTSFTLKSFKSRGNCQTQGDSILDCVPKDGQSHCSIPDKHLLLYQNMGIWVQAENALGTSMSPQLCLDPMDVVKLEPPMLRTMDPSPEAAPPQAGCLQLSWEPWQPGLHINQKCELRHKPQRGEASWALVGPLPLEALQYELCGLLPATAYTLQIRCIRWPLPGHWSDWSPSLELRTTE |  | no binding |  |
| G-CSFE design 134, purified, tag cleaved (ligand, also called Design #134 G-CSFE) TPLGPASSLPQSFLLKCLEQVRKIQGDGAALQEKLCATYKLCHPERLVLLGHSLGIPWAPLSSCPSQALQLAGCLSQLHSGLFLYQGLLQALEGISPELGPTLDTLQKDVARFATTIWQQMRRLGMAPALQPTQGAMPAFASAFQRRAGGVLVASHLQSFLEVSYRVLRHLAQAAAENLYFQ | 465 |  | KD fold change (vs WT:WT) [6]: 1 fold; fold weaker affinity (vs WT:WT) [3]: ~500 fold |
| G-CSFE design 117, purified, tag cleaved (ligand, also called Design 117 G-CSFE) TPLGPASSLPQSFLLKCLEQVRKIQGDGAALQEKLCATYKLCHPERLVLLGHSLGIPWAPLSSCPSQALQLAGCLSQLHSGLFLYQGLLQALEGISPELGPTLDTLQLDVADFATTIWQQMRRLGMAPALQPTQGAMPAFASAFQRRAGGVLVASHLQSFLEVSYRVLRHLAQAAAENLYFQ | 3.4 |  |  |
| G-CSFR(Ig-CRH)E design 402, purified, tag cleaved (receptor, SPR protein; also called Design 402 G-CSFR(Ig-CRH)E) GSMGCGHISVSAPIVHLGDPITASCIIKQNCSHLDPEPQILWELGAELQPGGRQQRLSDGTQESIITLPHLNHTQAFLSCSLNWGNSLQILDQVELRAGYPPAIPHNLSCLMNLTTSSLICQWEPGPETHLPTSFTLKSFKSRGNCQTQGDSILDCVPKDGQSHCSIPEKHLLLYENMGIWVQAENALGTSMSPQLCLDPMDVVKLEPPMLRTMDPSPEAAPPQAGCLQLSWEPWQPGLHINQKCELRHKPQRGEASWALVGPLPLEALQYELCGLLPATAYTLQIRCIEWPLPGHWSDWSPSLELRTTE |  | no binding |  |
| G-CSFR(Ig-CRH)E design 130, purified, tag cleaved (receptor, SPR protein; also called Design 130 G-CSFR(Ig-CRH)E) GSMGCGHISVSAPIVHLGDPITASCIIKQNCSHLDPEPQILWELGAELQPGGRQQRLSDGTQESIITLPHLNHTQAFLSCSLNWGNSLQILDQVELRAGYPPAIPHNLSCLMNLTTSSLICQWEPGPETHLPTSFTLKSFKSRGNCQTQGDSILDCVPKDGQSHCSIPDKHLLLYQNMGIWVQAENALGTSMSPQLCLDPMDVVKLEPPMLRTMDPSPEAAPPQAGCLQLSWEPWQPGLHINQKCELRHKPQRGEASWALVGPLPLEALQYELCGLLPATAYTLQIRCIRWPLPGHWSDWSPSLELRTTE |  | no binding |  |
| G-CSFR(Ig-CRH)E design 307, purified, tag cleaved (receptor, SPR protein; also called Design 307 G-CSFR(Ig-CRH)E) GSMGCGHISVSAPIVHLGDPITASCIIKQNCSHLDPEPQILWELGAELQPGGRQQRLSDGTQESIITLPHLNHTQAFLSCSLNWGNSLQILDQVELRAGYPPAIPHNLSCLMNLTTSSLICQWEPGPETHLPTSFTLKSFKSRGNCQTQGDSILDCVPKDGQSHCSIPRKHLLLYQNMGIWVQAENALGTSMSPQLCLKPMKVVKLEPPMLRTMDPSPEAAPPQAGCLQLSWEPWQPGLHINQKCELRHKPQRGEASWALVGPLPLEALQYELCGLLPATAYTLQIRCIEWPLPGHWSDWSPSLELRTTE |  | no binding |  |
| G-CSFR(Ig-CRH)E design 401, purified, tag cleaved (receptor, SPR protein; also called Design 401 G-CSFR(Ig-CRH)E) GSMGCGHISVSAPIVHLGDPITASCIIKQNCSHLDPEPQILWELGAELQPGGRQQRLSDGTQESIITLPHLNHTQAFLSCSLNWGNSLQILDQVELRAGYPPAIPHNLSCLMNLTTSSLICQWEPGPETHLPTSFTLKSFKSRGNCQTQGDSILDCVPKDGQSHCSIPDKHLLLYQNMGIWVQAENALGTSMSPQLCLDPMDVVKLEPPMLRTMDPSPEAAPPQAGCLQLSWEPWQPGLHINQKCELRHKPQRGEASWALVGPLPLEALQYELCGLLPATAYTLQIRCIDWPLPGHWSDWSPSLELRTTE |  | no binding |  |
